The source of these data is patent publication US12630850B2, “Enzymatic break down of chlorogenic acid in sunflower-containing products” (Chapman University, priority 2022, dated 2026).

The test is described as follows: HPLC quantification of CGA in sunflower flour cookies. The test is classed as biochemical. The conditions noted are these: SFF cookies; 0.09 mg/g flour, pre- and direct treatment. The source says:
Cookie formulations and baking conditions. The cookie dough formulation consisted of baking soda (2.2 g), salt (2.2 g), whole egg (46.8 g), maple syrup (76.3 g), vanilla extract (2.2 g), flour (145.8 g), and butter (87.5 g). CGA esterase treatments in SFF, utilized almond butter instead of SFB. The wet (sunflower or almond butter, maple syrup, eggs, and vanilla extract) and dry (flour, baking soda, and salt) ingredients were mixed separately and subsequently combined and mixed for 75 s with an electric hand mixer. The dough was rolled out and cut to the following dimensions: 6 mm thickness and 40 mm diameter. Cookies were baked for 7 min in a convection oven preheated to 149° C. (300° F.) and allowed to cool at room temperature for 10 min before further analysis.
Preparation of sunflower flour cookies with CGA esterase. […]
High-performance liquid chromatography (HPLC) quantification of phenolic content in sunflower cookies. […] The extract was filtered through 0.20 μm syringe filters and analyzed with an Agilent 1260 Infinity II system (Agilent Technologies) equipped with a quaternary pump (G7111B), vial sampler (G7129A), and diode array detector (HS G7117C). […] CGA and caffeic acid concentrations were detected at 320 nm and quantified using a standard curve between 0.00-0.10 mg ml^−1 CGA (y=172287x, R^2=0.994) and caffeic acid (y=248557x, R^2=0.967).

B1: CGA esterase: CGA esterase from L. helveticus (Genbank ID: WP_025283955.1, Uniprot ID: U6F2K7), expressed in Escherichia coli; the dimer is the active form (protein, listed as Lactobacillus helveticus)
chain: MSRITIERDGLTLVGDREEPFGEIYDMAIIMHGFAANRNTDLLRQIADDLRDENVASVRFDFNGHGESDGKFEDMTVCNEIADGKAILDYVRTDPHVRDIFLVGHSQGGVVASMLAGLYPDVVKKVVLLAPAAQLKDDALRSNTQGATYDPNHIPDWPLVGNKLGMKLGGFYLRTAQVLPIYEVSQCFTRPVSVIAGTNDQWDPKYAKKYDEVYENSELHMIPNADHRFSGGYKDMAADLTAQFLKPAF
On to B1, for which the “Effect of enzyme addition on CGA” value was “nearly complete elimination of CGA”.
